# B1: CAT B-PPREmt (dsDNA)
# DNA 1: TCTCCTGATGTAGGATACTCCTGCCTCG
# DNA 2: CGAGGCAGGAGTATCCTACATCAGGAGA
# B2: CAT L-PPRE (dsDNA)
# DNA 1: TTATGGGGTAAAGGCAGAGGTAATTATT
# DNA 2: AATAATTACCTCTGCCTTTACCCCATAA
# B3: CAT B-PPRE (dsDNA)
# DNA 1: TCTCCTGACCTGTGATCCGCCCGCCTCG
# DNA 2: CGAGGCGGGCGGATCACAGGTCAGGAGA
# B4: consensus PPRE (dsDNA)
# DNA 1: CAAAACTAGGTCAAAGGTCA
# DNA 2: TGACCTTTGACCTAGTTTTG
# B5: CAT L-PPREmt (dsDNA)
# DNA 1: TTATGCGGTACCCGCTTCGGTAATTATT
# DNA 2: AATAATTACCGAAGCGGGTACCGCATAA
# Experiments:
# Details in all cases: protein: recombinant;recombinant; tags: ;; copies: 1;1; blunt
# PPARγ;RXRα [1] = target: T1, PPARγ;RXRα (human;human, UniProt P37231;P19793 1-505;1-462, |); assay: EMSA; labeled mutant probe; 4 fmol labeled DNA, 3.7 pmol PPARγ, 3.9 pmol RXRα in 20 µl; 20 ng poly(dI.dC), 2.5% glycerol, 0.05% NP-40, 5 mM MgCl2; on ice 20 min; 4% native gel, 1x TBE, 4 °C; pH and salt not given
# PPARγ;RXRα [2] = target: T1, PPARγ;RXRα; assay: EMSA; two shifted complexes; anti-PPARγ supershift; 4 fmol labeled DNA, 3.7 pmol PPARγ, 3.9 pmol RXRα in 20 µl; 20 ng poly(dI.dC), 2.5% glycerol, 0.05% NP-40, 5 mM MgCl2; on ice 20 min; 4% native gel, 1x TBE, 4 °C; pH and salt not given
# PPARγ;RXRα [3] = target: T1, PPARγ;RXRα; assay: EMSA; positive control; anti-PPARγ supershift; 4 fmol labeled DNA, 3.7 pmol PPARγ, 3.9 pmol RXRα in 20 µl; 20 ng poly(dI.dC), 2.5% glycerol, 0.05% NP-40, 5 mM MgCl2; on ice 20 min; 4% native gel, 1x TBE, 4 °C; pH and salt not given
Binder,binding result (PPARγ;RXRα [1]),binding result (PPARγ;RXRα [2]),also measured
B1,no binding,,
B2,,binds,
B3,,binds,
B4,,,binding result (PPARγ;RXRα [3]): binds
B5,no binding,,

# — paper PMC6345753, “Curcumin inhibits the TGF-β1-dependent differentiation of lung fibroblasts via PPARγ-driven upregulation of cathepsins B and L”
